# Experiment: soluble on expression in E. coli; label from the status in PepcDB or PDB records
row,Sequence,soluble on expression in E. coli
1,MCGRFTLTVDLLALQDRFHFRYQGSLTPRFNIAPGQDVLTIVAEGGERVGKMMRWGLVPFWAKDARIGAKMINARAETVDEKASFRHAFKRRRCLILADGFFEWKKEGTKKVPYRFTLKTGEPFAFAGLWERWEGASDPIETCTIMTTKANELIAPIHDRMPVMLPYERHDDWLDPRLDDSEYLKSLLSPYPSGEMRMYEVAPLVNSPKNDVIACIEPVDSRSMEGT,not soluble
2,MRVMAKIELLAKFTQIALPNSHPLLKKVLNYAKKHFSQCHMLSSSLLILNDTECFKKNYLLNWVYHALECVHEKDISAHSLEEVLQKSHLPIRIKIMAQNTLLEKIEVKVLTFGAEYALFITKHPIAKRFLRQKFSGCVFLETQDELHIRGDSERFWELIVTLNENRIVHNACLDFIYPNGFGKDSYTTMAERKLKECYKTLGFIKHEDFSEVKKRYLELAKTYHPDLCDLKEKKALYAKRFAIIQEAYRHIKKHALEHHHHHH,soluble
3,MNKNVMVKGLTALTILTILTSLGFAENISNQPHSIAKAEKNVKEITDATKEPYNSVVAFVGGTGVVVGKNTIVTNKHIAKSNDIFKNRVSAHHSSKGKGGGNYDVKDIVEYPGKEDLAIVHVHETSTEGLNFNKNVSYTKFADGAKVKDRISVIGYPKGAQTKYKMFESTGTINHISGTFMEFDAYAQPGNSGSPVLNSKHELIGILYAGSGKDESEKNFGVYFTPQLKEFIQNNIEK,not soluble
4,MGSDKIHHHHHHADTFSVLAHELMHFVYPSGTELLTPNVTKAANKCTQDEVKMMGDSDAVKPIDGWFSKKVTHEDLANIMGLRMVMKMAAKKSVNEEQLKNALETILGGLCIQGKPKNSILPHHHPFEISINTAVRQYPLFSSLYGCRPGDRMFAEAEKFCNPLGGEVNLEDYKIKNDTEDIGGFFNYIMDTANAFNFSIEN,not soluble
5,MGSDKIHHHHHHMMISLYSAATGMSAQQFKLDTIANNLANVDTTGYKKVRAEFQDLLYQYVKNAGTPTAATSSLPTGLYVGHGVRTAATTRIFTLGNFEQTGNALDLAIAGDGFFQIQLQDGRIAYTRDGSFKMDSEGRIVTSNGLLLVPEITIPENAVSINVSPDGIVSAELQDGTIQELGTITLVRFVNPSGLKSIGDNLYIATPASGDPIEGVPGQDGFGAIKQGFLEKSNVDVVREMVDMITAQRAYEFNSRVIQTADEMLRTATNVKR,not soluble
6,YSQVQLPFNDLLYIETSSRSHRVVLYTEKDRMEFTATLGDILKQEPRLFQCHRSFLVNPLNIFKVDRIDRLVYFQNGTTCLVSRNKVRDIVSIVDKYQKDRKR,not soluble
7,MGSDKIHHHHHHMSIDYSQKIPNNVNLADDRALQRALEHWQPAFLDWWRDMGPEGSHNFDVYLRTAVSVDPSGWAHFEHVKMPDYRWGIFLQPADPARQIHFGEHKGEAAWQDVPGEHRANLRRIIVTQGDTEPASVEQQRHLGLTAPSLYDLRNLFQVNVEEGRHLWAMVYLLHRYFGRDGREEAEALLDRRSGDQDNPRILGAFNERTPDWLSFFMFTYFTDRDGKFQLCALAESGFDPLARTTRFMLTEEAHHMFVGESGVSRVIQRTCEVMRERDIRDPADVRAAGVIDLETIQRYLNFHYSVTIDLFGADQSSNAATFYSAGLKGRFEEGKRTDDHVLKSDVYRVLEVRDGQLGEREVPMLNALNEVLRDDYIRDSIGGVARWNKVIEKHGIPFKLTVPHKAFNRKIGTLSNVHVSPTGELLTEAQWQANERNWLATEEDRAYVASLMGRVTEPGKYANWIAPPAVGVNRQPMDFEYVRFN,not soluble
8,MIPIERHQKILALVAERGVVSIAELTERLGVSHMTIRRDVQKLEEQGAVLSVSGGVRSTQRLAIEPSHQDKTMMFSRQKQAIGTSAALHIPRNSCIYLDAGTTTLALARQLEDRDDLLVVTNDFVIANFLIESSQCRMIHSGGTLCRKNRSCIGEAAAHSLRNLSIDIAFISASCWGLRGISTPDEDKVPVKRAISEASSKRVLLADASKYGKVATYLALPLTAFDVVITDNSLSSTVYEELAEKALELIIASPPR,not soluble
9,MASECVDENSKPWMRVTVSCALLPEVLKQGAEAGGAVKLTGNPSEQSSEDGSHHCSSNFQNSPVTSDLSVLDASPCGLPAEKRKPPHRETSISSNASQSEREIAPTATRRLSPKPETATLSPSESSSLTAATLSNCSSRVQSSSDEKIGNCPSTSACSVSQTTASSEAPSWLSSGASTAQVLSERRGSIEEQPAPETSAAAVRVSRSSSDSENLFASCSASLRNLEPDDISDPENEAAAPACAETGASRAQDAAAVRADAENLGEGESHMETASTRAESLAKDAISSKVSRRGSAHTSSDASGQCQDALPSVGEGKPGEMNGREEDGEAEKPEASAESLQGSDGQANESEAPKPGGGRVDAKMRAKFKREFVRSWVDINRAPSWPPIKKNKYLSSDWKRVDLRTAAGEIRVETKKHRLFLNDLCFLFDGVYTQKSTLGRKAGLGLFCERPEGLHKGQIITEFVGWLVDRDLAESYRKQRTASHIVAVQKGFLYIDGAKEPAYGMGGGSFANDGSEFLGGPGNNAQFYHWFDDELGRTRVFLRATADIKNGEEIFVPYHKTYWVDNFEEQAENCPDAFKQRKLEQLRRRYKNPEFVHIPHREEVAMREREEAERRKRDKEESEKKKAAAKQPRCPVKRPCSAYLLFSVARRKELLKACGILSKGDDEPASQQVSESPEVPREGQRKRRASSASQAAAPVPAAANKRRKAEKDEPSSPEETKRGQVVAAAGLKRGAARPACVGDETAQKLAGWLAKDGAANVRTLCAELTREVAREWGNMRPEEKKPWEQLAEKEKIRYAKAVRTWREKLKKKKSGRETATRKRKVPCSRKGHGTEKGEKAGKVKPQADTSPREAAPEGTETRDHEDVQAGAKDRAATQKER,soluble
10,MYRDRVRLPSLLDKVMSAAEAADLIQDGMTVGMSGFTRAGEAKAVPQALAMRAKERPLRISLMTGASLGNDLDKQLTEAGVLARRMPFQVDSTLRKAINAGEVMFIDQHLSETVEQLRNHQLKLPDIAVIEAAAITEQGHIVPTTSVGNSASFAIFAKQVIVEINLAHSTNLEGLHDIYIPTYRPTRTPIPLTRVDDRIGSTAIPIPPEKIVAIVINDQPDSPSTVLPPDGETQAIANHLIDFFKREVDAGRMSNSLGPLQAGIGSIANAVMCGLIESPFENLTMYSEVLQDSTFDLIDAGKLRFASGSSITLSPRRNADVFGNLERYKDKLVLRPQEISNHPEVVRRLGIIGINTALEFDIYGNVNSTHVGGTKMMNGIGGSGDFARNAHLAIFVTKSIAKGGNISSVVPMVSHVDHTEHDVDILVTEQGLADLRGLAPRERARVIIENCVHPSYQAPLLDYFEAACAKGGHTPHLLREALAWHLNLEERGHMLAG,soluble
11,ESKLEGKAAQDIKDEEPGDLGRPKPECEGYDPNALYCICRQPHNNRFMICCDRCEEWFHGDCVGISEARGRLLERNGEDYICPNCTILQVQDETHSETADQQEAKWRPGDADGTDCTSIGTIEQKSSEDQGIKGRIEKAANPSGKKKLKIFQPGPGPVPTQLPVLWQVLEIAVSRSISAFTLLHCISCKVIEAPGASKCIGPGCCHVAQPDSVYCSNDCILKHAAATMKFLSSGKEQKPKPKEKMKMKPEKPSLPKCGAQAGIKISSVHKRPAPEKKETTVKKAVVVPARSEALGKEAACESSTPSWASDHNYNAVKPEKTAAPSPSLLYKSTKEDRRSEEKAAATAASKKTAPPGSTVGKQPAPRNLVPKKSSFANVAAATPAIKKPPSGFKGTIPKRPWLSATPSSGASAARQAGPAPAAATAASKKFPGSAALVGAVRKPVVPSVPMASPAPGRLGAMSAAPSQPNSQIRQNIRRSLKEILWKRVNDSDDLIMTENEVGKIALHIEKEMFNLFQVTDNRYKSKYRSIMFNLKDPKNQGLFHRVLREEISLAKLVRLKPEELVSKELSTWKERPARSVMESRTKLHNESKKTAPRQEAIPDLEDSPPVSDSEEQQESARAVPEKSTAPLLDVFSSMLKDTTSQHRAHLFDLNCKICTGQVPSAEDEPAPKKQKLSASVKKEDLKSKHDSSAPDPAPDSADEVMPEAVPEVASEPGLESASHPNVDRTYFPGPPGDGHPEPSPLEDLSPCPASCGSGVVTTVTVSGRDPRTAPSSSCTAVASAASRPDSTHMVEARQDVPKPVLTSVMVPKSILAKPSSSPDPRYLSVPPSPNISTSESRSPPEGDTTLFLSRLSTIWKGFINMQSVAKFVTKAYPVSGCFDYLSEDLPDTIHIGGRIAPKTVWDYVGKLKSSVSKELCLIRFHPATEEEEVAYISLYSYFSSRGRFGVVANNNRHVKDLYLIPLSAQDPVPSKLLPFEGPGKRRLSGWR,soluble

# Source: the DeepSol protein solubility set
